{"source": "paper PMC5557850", "key": {"[1]": {"molecular_target": "FapF coiled-coil peptide D3–Q40 (Pseudomonas sp. UK4)", "test": "SEC-MALS; Superdex 200 HR 10/30 column coupled to multiple laser light scattering; isolated coiled-coil peptide"}, "[2]": {"molecular_target": "full-length FapF (FapF 1–406) (Pseudomonas sp. UK4)"}, "[3]": {"molecular_target": "full-length FapF (FapF 1–406) (Pseudomonas sp. UK4)", "test": "native MS; 0.5 M ammonium acetate pH 7.6 with 0.5% C8E4; nano-electrospray, modified Q-Exactive"}}}
{"substance": "FapF coiled-coil peptide D3–Q40", "values": [{"measurement": "stoichiometry N", "setting": "[1]", "result": 3}]}
{"substance": "full-length FapF (FapF 1–406) (natural protein)", "values": [{"measurement": "single-channel current recording in planar DPhPC bilayers: voltage-induced gating at an applied potential of −250 mV", "setting": "[2]", "result": 3, "unit": "steps"}, {"measurement": "stoichiometry N", "setting": "[3]", "result": 3}]}
